From US20240254260A1 (ISU ABXIS, published 2024)

Target: T1, ASM protein present in the blood plasma of APP/PS1 mice (mouse, UniProt Q04519 45-626, limits assumed)
T1 sequence: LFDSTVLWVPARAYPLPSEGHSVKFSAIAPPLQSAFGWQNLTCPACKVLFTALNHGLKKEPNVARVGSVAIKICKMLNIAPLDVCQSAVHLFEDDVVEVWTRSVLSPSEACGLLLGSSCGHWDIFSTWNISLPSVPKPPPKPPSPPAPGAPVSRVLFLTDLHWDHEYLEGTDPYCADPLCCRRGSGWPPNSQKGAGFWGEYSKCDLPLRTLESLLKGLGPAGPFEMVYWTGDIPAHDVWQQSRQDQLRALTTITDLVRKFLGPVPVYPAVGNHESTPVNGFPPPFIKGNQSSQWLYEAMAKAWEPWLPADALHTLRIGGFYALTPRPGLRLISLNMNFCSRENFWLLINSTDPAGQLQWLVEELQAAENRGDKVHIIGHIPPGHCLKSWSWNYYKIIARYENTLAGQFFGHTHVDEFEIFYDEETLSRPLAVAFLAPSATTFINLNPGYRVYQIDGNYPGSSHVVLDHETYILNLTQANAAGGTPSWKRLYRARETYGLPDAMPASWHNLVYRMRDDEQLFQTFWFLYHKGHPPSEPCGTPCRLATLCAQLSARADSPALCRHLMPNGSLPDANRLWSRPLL
Experiment: cell-based or functional assay

activity of the ASM protein in blood plasma of APP/PS1 mice after administration of 50 mg/kg antibody (UPLC), relative to the negative control group: ~64%
B1: antibody #9104 (antibody, mouse IgG1, V domains shown)
VH: EVQLLESGGGLVQPGGSLRLSCAASGFTFSNYYMSWVRQAPGKGLEWVSGIYYGSGNIYYADSVKGRFTISRDNSKNTLYLQMNSLRAEDTAVYYCARDTPGFDYWGQGTLVTVSS
VL: QSVLTQPPSASGTPGQRVTISCTGSSSNIGNNAVNWYQQLPGTAPKLLIYYDSHRPSGVPDRFSGSKSGTSASLAISGLRSEDEADYYCGAWDYSLSAYVFGGGTKLTVLG
